The record followed here is article PMC7567103 (Nature Communications, 2020).

Assay [1] has as its target HA-Flag-GHRHR T213A (human) (UniProt Q02643).
Assay [2] deals with HA-Flag-GHRHR R357A (human) (UniProt Q02643).
Assay [3] deals with HA-Flag-GHRHR F187A (human) (UniProt Q02643).
Assay [4] has as its target HA-Flag-GHRHR K182A (human) (UniProt Q02643).
The target of assay [5] is HA-Flag-GHRHR H210A (human) (UniProt Q02643).
The target in assay [6] is HA-Flag-GHRHR W282A (human) (UniProt Q02643).
Assay [7] concerns the target HA-Flag-GHRHR C195A (human) (UniProt Q02643).
Assay [8] concerns the target GHRHR(23-423) (WT) (human) (UniProt Q02643).
The target in assay [9] is HA-Flag-GHRHR N346A (human) (UniProt Q02643).
For assay [10], the target named is GHRHR(23-423) (human) (UniProt Q02643).
Assay [11] has as its system GHRHR WT. Put plainly: cAMP accumulation, GHRH vs GHRH(D3A) (Supplementary Fig. 6c). Type of assay: cell-based, human. The conditions noted are these: D3A in GHRH; WT receptor. On the procedure: GHRH-stimulated cAMP accumulation was measured by a LANCE Ultra cAMP kit (PerkinElmer). Briefly, 24 h after transfection with GHRHR(23-423), GHRHR(23-405), GHRHR(23-405)-LgBiT-2MBP, or HA-Flag-GHRHR (WT and mutants), HEK 293 T cells (3000/well in 384-well white plates, PerkinElmer) were digested by 0.2% (w/v) EDTA and 5 μL stimulation buffer (HBSS supplemented with 5 mM HEPES, 0.5 mM IBMX, and 0.1% (w/v) BSA, pH 7.4). Different concentrations (5 μL) of GHRH were then added and the stimulation lasted for 30 min at RT. The reaction was stopped by adding 5 μL Eu-cAMP tracer and 5 μL ULight-anti-cAMP. After 1 h RT incubation, TR-FRET signals (excitation: 320 nm, emission: 615 and 665 nm) were measured by an EnVision (PerkinElmer).
For orientation: Cyclic AMP is a second messenger, typically raised through Gs and lowered through Gi signalling.

Assay [12] addresses T1, HA-Flag-GHRHR K182A (human, UniProt Q02643 23-423, K182^2.67bA).
T1 sequence (looked up): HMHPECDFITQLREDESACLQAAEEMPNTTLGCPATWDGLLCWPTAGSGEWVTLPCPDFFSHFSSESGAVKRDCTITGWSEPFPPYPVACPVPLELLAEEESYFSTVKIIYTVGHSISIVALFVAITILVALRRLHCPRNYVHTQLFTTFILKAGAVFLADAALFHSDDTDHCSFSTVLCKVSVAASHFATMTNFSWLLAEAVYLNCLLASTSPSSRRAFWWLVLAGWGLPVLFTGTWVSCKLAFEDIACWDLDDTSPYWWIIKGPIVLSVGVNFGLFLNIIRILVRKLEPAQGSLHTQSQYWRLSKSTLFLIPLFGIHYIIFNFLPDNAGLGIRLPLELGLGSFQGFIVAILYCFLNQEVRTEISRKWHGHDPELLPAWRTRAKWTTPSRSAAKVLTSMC
Put plainly: cell-based or functional assay.

The target of assay [13] is T2, HA-Flag-GHRHR C195A (human, UniProt Q02643 23-423, C195^ECL1A).
T2 sequence (looked up): T1 sequence (looked up) with A160K, C173A
Put plainly: cell-based or functional assay.

In assay [14] the target is T3, HA-Flag-GHRHR R357C (human, UniProt Q02643 23-423, R357C).
T3 sequence (looked up): T1 sequence (looked up) with A160K, R335C
The assay can be described thus: cell-based or functional assay.

The target in assay [15] is T4, HA-Flag-GHRHR F187A (human, UniProt Q02643 23-423, F187^ECL1A).
T4 sequence (looked up): T1 sequence (looked up) with A160K, F165A
The assay can be described thus: cell-based or functional assay.

Substitutions are numbered along the chain they refer to. Where no end group is shown, it is not given here.

For the molecule “growth hormone-releasing hormone (GHRH) (from UniProt P01286 32-75) (peptide)”, in assay [1], the Supplementary Table 4, T213A: pEC50 of GHRH-induced cAMP accumulation, HEK 293T cells is 9.35 -log M. In [2], the Supplementary Table 4, R357A: pEC50 of GHRH-induced cAMP accumulation, HEK 293T cells is 6.87 -log M. Further, the Supplementary Table 4, F187A: pEC50 of GHRH-induced cAMP accumulation, HEK 293T cells in assay [3] is 8.94 -log M. Besides, the Supplementary Table 4, K182A: pEC50 of GHRH-induced cAMP accumulation, HEK 293T cells in assay [4] was 7.4 -log M. For the same molecule, the Supplementary Table 4, H210A: pEC50 of GHRH-induced cAMP accumulation, HEK 293T cells in [5] was 9 -log M. In addition, the Supplementary Table 4, W282A: pEC50 of GHRH-induced cAMP accumulation, HEK 293T cells in [6] was 7.88 -log M. Further, the Supplementary Table 4, C195A: pEC50 of GHRH-induced cAMP accumulation, HEK 293T cells in assay [7] is 7.67 -log M. Moreover, in assay [8], the Supplementary Table 4, Wild-type: pEC50 of GHRH-induced cAMP accumulation, HEK 293T cells was 9.74 -log M. The Supplementary Table 4, N346A: pEC50 of GHRH-induced cAMP accumulation, HEK 293T cells in assay [9] was 8.85 -log M.
GHRH D^3PA (peptide) gave a cAMP accumulation in HEK 293 T cells: fold loss of potency in [10] of 4 fold.
Turning to “GHRH(D3A): GHRH with Asp3 replaced by Ala (YAAAIFTNSYRKVLGQLSARKLLQDIMSRQQGESNQERGARARL; ends and bridges not checked; UniProt P01286 32-75, looked up, variant D3A)”, the “diminished potency vs GHRH” value in assay [11] is listed as ~ 4 fold.
In the case of YADAIFTNSYRKVLGQLSARKLLQDIMSRQQGESNQERGARARL (peptide, UniProt P01286 32-75, looked up) [Growth hormone-releasing hormone (GHRH)], the “cAMP accumulation in HEK 293 T cells: fold loss of GHRH potency” value in [12] is around 200 fold; in assay [13], around 100 fold; in assay [14], 1000 fold; in assay [15] it was around 5 fold.
